Assays:
HLA-B*58:01 = assay: IEDB peptide-MHC binding, purified MHC/competitive/radioactivity; filed as Kd, often an IC50 or EC50 that approximates it; ≥ and ≤ were set here for values at or beyond the usual limits of such assays
HLA-B*57:01 [1] = assay: as above
HLA-A*11:01 = assay: IEDB peptide-MHC binding, purified MHC/competitive/fluorescence; ≥ and ≤ were set here for values at or beyond the usual limits of such assays; settings: source organism: Zaire ebolavirus
HLA-A*03:01 [2] = assay: as above; settings: source organism: Zaire ebolavirus
HLA-B*15:01 [3] = assay: IEDB peptide-MHC binding, purified MHC/direct/fluorescence; filed as Kd, often an IC50 or EC50 that approximates it; ≥ and ≤ were set here for values at or beyond the usual limits of such assays; settings: source organism: Vibrio parahaemolyticus RIMD 2210633
HLA-B*07:02 = assay: as above; settings: source organism: Vibrio parahaemolyticus
HLA-B*51:01 [4] = assay: as above
HLA-A*02:12 = assay: IEDB peptide-MHC binding, purified MHC/competitive/fluorescence; filed as Kd, often an IC50 or EC50 that approximates it; ≥ and ≤ were set here for values at or beyond the usual limits of such assays; settings: source organism: Coxiella burnetii 'MSU Goat Q177'
HLA-A*26:01 = assay: as above; settings: source organism: Coxiella burnetii 'MSU Goat Q177'
HLA-B*46:01 = assay: as above; settings: source organism: Coxiella burnetii 'MSU Goat Q177'
HLA-B*39:01 = assay: as above; settings: source organism: Coxiella burnetii 'MSU Goat Q177'
HLA-B*15:01 [5] = assay: as above; settings: source organism: Coxiella burnetii 'MSU Goat Q177'
HLA-B*18:01 = assay: as above; settings: source organism: Coxiella burnetii 'MSU Goat Q177'
HLA-B*51:01 [6] = assay: as above; settings: source organism: Coxiella burnetii 'MSU Goat Q177'
HLA-B*27:03 = assay: as above; settings: source organism: Coxiella burnetii 'MSU Goat Q177'
HLA-A*03:01 [7] = assay: as above; settings: source organism: Coxiella burnetii 'MSU Goat Q177'
HLA-B*57:01 [8] = assay: as above; settings: source organism: Coxiella burnetii 'MSU Goat Q177'
HLA-A*02:11 = assay: as above; settings: source organism: Coxiella burnetii 'MSU Goat Q177'
[9] = source organism: Dengue virus 4 Philippines/H241/1956
[10] = source organism: Dengue virus 1 Brazil/97-11/1997

RAKGSRAIW
Kd (HLA-B*58:01; [9]): 0.0271 µM
Kd (HLA-B*57:01 [1]; [9]): 0.172 µM

RSTKGGQQK
IC50 (HLA-A*11:01): 1.81 µM
IC50 (HLA-A*03:01 [2]): 5.63 µM

EPATQTFDM
Kd (HLA-B*15:01 [3]): ≥ 20 µM
Kd (HLA-B*07:02): 0.121 µM
Kd (HLA-B*51:01 [4]; source organism: Vibrio parahaemolyticus): ≥ 20 µM

YYLIKYLHV
Kd (HLA-A*02:12): 1.17 µM
Kd (HLA-A*26:01): ≥ 20 µM
Kd (HLA-B*46:01): ≥ 20 µM
Kd (HLA-B*39:01): ≥ 20 µM
Kd (HLA-B*15:01 [5]): ≥ 20 µM
Kd (HLA-B*18:01): ≥ 20 µM
Kd (HLA-B*51:01 [6]): ≥ 20 µM
Kd (HLA-B*27:03): ≥ 20 µM
Kd (HLA-A*03:01 [7]): ≥ 20 µM
Kd (HLA-B*57:01 [8]): ≥ 20 µM
Kd (HLA-A*02:11): 0.0715 µM

SATRLENIMW
Kd (HLA-B*58:01; [10]): 0.0697 µM
Kd (HLA-B*57:01 [1]; [10]): 0.0117 µM

RPAADGKTV
Kd (HLA-B*51:01 [4]; source organism: West Nile virus): ≥ 20 µM

Reference: the Immune Epitope Database (IEDB)
